Laboratory results from patent US10239923B2, “Specific amyloid beta binding peptides and the use of same for treating and diagnosing alzheimer's dementia” (Forschungszentrum Juelich GmbH, priority 2015, dated 2019).
Square brackets hold non-standard residues; d marks the D form.

biological target: T1, Aβ1-42 monomers versus Aβ1-42 oligomers and fibrils (biotinylated, D-enantiomeric, immobilized) (Homo sapiens, UniProt P05067); assay: Monoclonal phage ELISA; assay type: binding; settings: individual phage clones; species immobilized at 320 nM; absorption at 450 nm normalized with 6E10 control; higher = more monomer-specific
T1 construct: biotinylated, D-enantiomeric Aβ1-42 monomers
Description: The specificity of the peptide results from the difference in % of the absorption values for the target molecule or the bait (for example A beta monomer) and the normalized absorption values for the competitors (for example A beta oligomers and fibrils) in the monoclonal phage ELISA.
The absorption values then constitute the affinity of individual phage clones for a particular immobilized A beta species. Here, the specificity is not dependent on the strength of the affinity, but instead only on the difference of the affinities between the species. […] The terms “competitors” and “target molecule” or “bait” are defined as specified below.
A method for normalizing the obtained values should therefore be performed. From all absorption values of the individual phage clone in the monoclonal phage ELISA, the values of the phage antibodies tested for cross-reaction can be used as background. This occurs in accordance with the previously immobilized species. The signal values of the phage antibody from the reaction trays with immobilized Aβ1-42 oligomers for this purpose can be removed from the signal values of the individual phage clone from the reaction trays with immobilized Aβ1-42 oligomers. A similar process is then carried out for Aβ1-42 monomers. In this way, a possible background signal of the phage antibody can initially be calculated from the signals of the individual phage clone. […] Only in this way is an equal interpretation of the results particularly in respect of the assessment of the specificity of the individual phage clone possible (see FIG. 2).
The affinity of individual phage clones with respect to the target molecule and the competitors was examined by means of ELISA. For this purpose, all three species were immobilized in biotinylated form on a polystyrene surface at streptavidin bound thereon. Since, during the panning rounds, oligomers and fibrils were added at the same time as competitors, these two species were immobilized in the monoclonal phage ELISA, likewise mixed. […] The streptavidin-coated microtiter plates were pre-washed as specified by the manufacturer. […] For immobilization, 100 μl were used per reaction tray and were incubated for 15 minutes at room temperature. After having washed the entire plate(s) twice with 150 μl 1×TBS per reaction tray, a blocking step with 150 μl 1×TBS/0.1% (v/v) Tween-20/1% (w/v) BSA was performed for an hour at room temperature. Three washing steps with 150 μl 1×TBS/0.1% (v/v) Tween-20 then followed per reaction tray. The amplified individual phage clones were mixed 1:1 with 1× TBS/1% (w/v) BSA. The antibody 6E10 was diluted 1:10,000 in 1×TBS/0.1% (v/v) Tween-20. […] After washing five times with 150 μl 1×TBS/0.1% (v/v) Tween-20 per reaction tray, 200 μl 1×TBS/0.1% (v/v) Tween-20 were placed in each reaction tray, and the plate(s) incubated for one hour at room temperature. The solutions were removed and replaced as follows: In all reaction trays that had been incubated previously with individual phage clone dilutions or the batch without phages, 100 μl of a phage antibody diluted 1:5,000 in 1×TBS/0.1% (v/v) Tween-20 were now added. The enzyme horseradish peroxidase (HRP) was coupled to this antibody and later served for the conversion of a substrate (TMB). […] At the same time, 100 μl of a second antibody diluted 1:1,000 in 1×TBS/0.1% (v/v) Tween-20 were now added to all reaction trays that had been previously incubated with the dilution of the 6E10 antibody, said second antibody being able to identify and bind to the 6E10 antibody originating from mice. This antibody is also HRP-coupled and thus allows a quantification of the binding of the first antibody to the immobilized target molecules or the plastics surface of the reaction tray. After one hour of incubation at room temperature, the plate(s) was/were washed 10 times with 150 μl 1×TBS/0.1% (v/v) Tween-20 per reaction tray. The signal was detected by adding the substrate 3,3′,5,5′-tetramethylbenzidine (TMB). […]

T1 sequence (P05067 672-713): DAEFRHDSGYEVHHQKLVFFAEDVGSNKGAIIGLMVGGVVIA

Sequence	Difference in signal strength between Aβ1-42 monomers (100%) and Aβ1-42 oligomers and fibrils [%]
DWSSRVYRDPQT (H-[dD][dW][dS][dS][dR][dV][dY][dR][dD][dP][dQ][dT]-NH2; SMILES CC(C)[C@@H](NC(=O)[C@@H](CCCNC(=N)N)NC(=O)[C@@H](CO)NC(=O)[C@@H](CO)NC(=O)[C@@H](Cc1c[nH]c2ccccc12)NC(=O)[C@H](N)CC(=O)O)C(=O)N[C@H](Cc1ccc(O)cc1)C(=O)N[C@H](CCCNC(=N)N)C(=O)N[C@H](CC(=O)O)C(=O)N1CCC[C@@H]1C(=O)N[C@H](CCC(N)=O)C(=O)N[C@@H](C(N)=O)[C@H](C)O) [Mosd16]	52.387
GQWDFRQWWQPC (H-G[dQ][dW][dD][dF][dR][dQ][dW][dW][dQ][dP][dC]-NH2; SMILES N=C(N)NCCC[C@@H](NC(=O)[C@@H](Cc1ccccc1)NC(=O)[C@@H](CC(=O)O)NC(=O)[C@@H](Cc1c[nH]c2ccccc12)NC(=O)[C@@H](CCC(N)=O)NC(=O)CN)C(=O)N[C@H](CCC(N)=O)C(=O)N[C@H](Cc1c[nH]c2ccccc12)C(=O)N[C@H](Cc1c[nH]c2ccccc12)C(=O)N[C@H](CCC(N)=O)C(=O)N1CCC[C@@H]1C(=O)N[C@H](CS)C(N)=O) [Mosd15]	59.985
FSHSHHTWFTWN (H-[dF][dS][dH][dS][dH][dH][dT][dW][dF][dT][dW][dN]-NH2; SMILES C[C@H](O)[C@@H](NC(=O)[C@@H](Cc1ccccc1)NC(=O)[C@@H](Cc1c[nH]c2ccccc12)NC(=O)[C@H](NC(=O)[C@@H](Cc1c[nH]cn1)NC(=O)[C@@H](Cc1c[nH]cn1)NC(=O)[C@@H](CO)NC(=O)[C@@H](Cc1c[nH]cn1)NC(=O)[C@@H](CO)NC(=O)[C@H](N)Cc1ccccc1)[C@H](C)O)C(=O)N[C@H](Cc1c[nH]c2ccccc12)C(=O)N[C@H](CC(N)=O)C(N)=O) [Mosd7]	57.960
VHWDFRQWWQQS (H-[dV][dH][dW][dD][dF][dR][dQ][dW][dW][dQ][dQ][dS]-NH2; SMILES CC(C)[C@@H](N)C(=O)N[C@H](Cc1c[nH]cn1)C(=O)N[C@H](Cc1c[nH]c2ccccc12)C(=O)N[C@H](CC(=O)O)C(=O)N[C@H](Cc1ccccc1)C(=O)N[C@H](CCCNC(=N)N)C(=O)N[C@H](CCC(N)=O)C(=O)N[C@H](Cc1c[nH]c2ccccc12)C(=O)N[C@H](Cc1c[nH]c2ccccc12)C(=O)N[C@H](CCC(N)=O)C(=O)N[C@H](CCC(N)=O)C(=O)N[C@H](CO)C(N)=O) [Mosd12]	59.012
HLSWYWEKYLTS (H-[dH][dL][dS][dW][dY][dW][dE][dK][dY][dL][dT][dS]-NH2; SMILES CC(C)C[C@@H](NC(=O)[C@H](N)Cc1c[nH]cn1)C(=O)N[C@H](CO)C(=O)N[C@H](Cc1c[nH]c2ccccc12)C(=O)N[C@H](Cc1ccc(O)cc1)C(=O)N[C@H](Cc1c[nH]c2ccccc12)C(=O)N[C@H](CCC(=O)O)C(=O)N[C@H](CCCCN)C(=O)N[C@H](Cc1ccc(O)cc1)C(=O)N[C@H](CC(C)C)C(=O)N[C@@H](C(=O)N[C@H](CO)C(N)=O)[C@H](C)O) [Mosd9]	68.016
VHWDFRQWWQPS (H-[dV][dH][dW][dD][dF][dR][dQ][dW][dW][dQ][dP][dS]-NH2; SMILES CC(C)[C@@H](N)C(=O)N[C@H](Cc1c[nH]cn1)C(=O)N[C@H](Cc1c[nH]c2ccccc12)C(=O)N[C@H](CC(=O)O)C(=O)N[C@H](Cc1ccccc1)C(=O)N[C@H](CCCNC(=N)N)C(=O)N[C@H](CCC(N)=O)C(=O)N[C@H](Cc1c[nH]c2ccccc12)C(=O)N[C@H](Cc1c[nH]c2ccccc12)C(=O)N[C@H](CCC(N)=O)C(=O)N1CCC[C@@H]1C(=O)N[C@H](CO)C(N)=O) [Mosd20]	45.718
EHWDFGQWWQQS (H-[dE][dH][dW][dD][dF]G[dQ][dW][dW][dQ][dQ][dS]-NH2; SMILES NC(=O)CC[C@@H](NC(=O)CNC(=O)[C@@H](Cc1ccccc1)NC(=O)[C@@H](CC(=O)O)NC(=O)[C@@H](Cc1c[nH]c2ccccc12)NC(=O)[C@@H](Cc1c[nH]cn1)NC(=O)[C@H](N)CCC(=O)O)C(=O)N[C@H](Cc1c[nH]c2ccccc12)C(=O)N[C@H](Cc1c[nH]c2ccccc12)C(=O)N[C@H](CCC(N)=O)C(=O)N[C@H](CCC(N)=O)C(=O)N[C@H](CO)C(N)=O) [Mosd14]	56.526
YSFHFEMNMGNY (H-[dY][dS][dF][dH][dF][dE][dM][dN][dM]G[dN][dY]-NH2; SMILES CSCC[C@@H](NC(=O)[C@@H](CC(N)=O)NC(=O)[C@@H](CCSC)NC(=O)[C@@H](CCC(=O)O)NC(=O)[C@@H](Cc1ccccc1)NC(=O)[C@@H](Cc1c[nH]cn1)NC(=O)[C@@H](Cc1ccccc1)NC(=O)[C@@H](CO)NC(=O)[C@H](N)Cc1ccc(O)cc1)C(=O)NCC(=O)N[C@H](CC(N)=O)C(=O)N[C@H](Cc1ccc(O)cc1)C(N)=O) [Mosd13]	57.246
DLRFSSLWKLSH (H-[dD][dL][dR][dF][dS][dS][dL][dW][dK][dL][dS][dH]-NH2; SMILES CC(C)C[C@@H](NC(=O)[C@H](N)CC(=O)O)C(=O)N[C@H](CCCNC(=N)N)C(=O)N[C@H](Cc1ccccc1)C(=O)N[C@H](CO)C(=O)N[C@H](CO)C(=O)N[C@H](CC(C)C)C(=O)N[C@H](Cc1c[nH]c2ccccc12)C(=O)N[C@H](CCCCN)C(=O)N[C@H](CC(C)C)C(=O)N[C@H](CO)C(=O)N[C@H](Cc1c[nH]cn1)C(N)=O) [Mosd19]	50.299
ERSQWGHRDPQS (H-[dE][dR][dS][dQ][dW]G[dH][dR][dD][dP][dQ][dS]-NH2; SMILES N=C(N)NCCC[C@@H](NC(=O)[C@H](N)CCC(=O)O)C(=O)N[C@H](CO)C(=O)N[C@H](CCC(N)=O)C(=O)N[C@H](Cc1c[nH]c2ccccc12)C(=O)NCC(=O)N[C@H](Cc1c[nH]cn1)C(=O)N[C@H](CCCNC(=N)N)C(=O)N[C@H](CC(=O)O)C(=O)N1CCC[C@@H]1C(=O)N[C@H](CCC(N)=O)C(=O)N[C@H](CO)C(N)=O) [Mosd17]	54.492
HFWSWTSLSMTR (H-[dH][dF][dW][dS][dW][dT][dS][dL][dS][dM][dT][dR]-NH2; SMILES CSCC[C@@H](NC(=O)[C@@H](CO)NC(=O)[C@@H](CC(C)C)NC(=O)[C@@H](CO)NC(=O)[C@H](NC(=O)[C@@H](Cc1c[nH]c2ccccc12)NC(=O)[C@@H](CO)NC(=O)[C@@H](Cc1c[nH]c2ccccc12)NC(=O)[C@@H](Cc1ccccc1)NC(=O)[C@H](N)Cc1c[nH]cn1)[C@H](C)O)C(=O)N[C@@H](C(=O)N[C@H](CCCNC(=N)N)C(N)=O)[C@H](C)O) [Mosd8]	68.616
HTWTHWFSWNVP (H-[dH][dT][dW][dT][dH][dW][dF][dS][dW][dN][dV][dP]-NH2; SMILES CC(C)[C@@H](NC(=O)[C@@H](CC(N)=O)NC(=O)[C@@H](Cc1c[nH]c2ccccc12)NC(=O)[C@@H](CO)NC(=O)[C@@H](Cc1ccccc1)NC(=O)[C@@H](Cc1c[nH]c2ccccc12)NC(=O)[C@@H](Cc1c[nH]cn1)NC(=O)[C@H](NC(=O)[C@@H](Cc1c[nH]c2ccccc12)NC(=O)[C@H](NC(=O)[C@H](N)Cc1c[nH]cn1)[C@H](C)O)[C@H](C)O)C(=O)N1CCC[C@@H]1C(N)=O) [Mosd10]	71.902
DRSKGDHRITQM (H-[dD][dR][dS][dK]G[dD][dH][dR][dI][dT][dQ][dM]-NH2; SMILES CC[C@@H](C)[C@@H](NC(=O)[C@@H](CCCNC(=N)N)NC(=O)[C@@H](Cc1c[nH]cn1)NC(=O)[C@@H](CC(=O)O)NC(=O)CNC(=O)[C@@H](CCCCN)NC(=O)[C@@H](CO)NC(=O)[C@@H](CCCNC(=N)N)NC(=O)[C@H](N)CC(=O)O)C(=O)N[C@@H](C(=O)N[C@H](CCC(N)=O)C(=O)N[C@H](CCSC)C(N)=O)[C@H](C)O) [Mosd18]	49.181
